The text below walks through data of patent publication US20200255522A1 (published 2020).

For assay [1], the target named is T1, VEGF (UniProt P15692-9 27-147).
T1 construct: also called VEGF121
T1 sequence (looked up): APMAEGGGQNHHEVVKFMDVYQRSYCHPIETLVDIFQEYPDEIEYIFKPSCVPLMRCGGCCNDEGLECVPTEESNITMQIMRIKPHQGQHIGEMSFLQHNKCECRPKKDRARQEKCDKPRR
Briefly: bridging ELISA of exchange reaction mix: capture VEGF, detection digoxygenin-Cy5; signal needs both specificities; highest value = 100%, input 1.3 µM. For orientation: In an ELISA, binding on a coated surface is turned into a signal by an enzyme label.

In assay [2] the target is T1, VEGF. Kind of assay: bridging ELISA, capture VEGF, detection biocytinamid-Cy5 or digoxygenin-Cy5.
Assay [3] addresses T1, VEGF. Briefly: bridging ELISA of exchange reaction mix: capture VEGF, detection biocytinamid-Cy5; signal needs both specificities; highest value = 100%, input 1.3 µM.

B1: bsAb from exchange reaction between anti-bio 2/3-IgG (MHCFcRP-knob-E357K) and anti-fluos 2/3-IgG (MHCFcRP-hole-K370E) (bispecific antibody)
heavy 1: not shown
light 1: DIQMTQSPSSLSASVGDRVTITCRASGNIHNYLSWYQQKPGKVPKLLIYSAKTLADGVPSRFSGSGSGTDFTLTISSLQPEDVATYYCQHFWSSIYTFGQGTKLEIKRTVAAPSVFIFPPSDEQLKSGTASVVCLLNNFYPREAKVQWKVDNALQSGNSQESVTEQDSKDSTYSLSSTLTLSKADYEKHKVYACEVTHQGLSSPVTKSFNRGEC
heavy 2: not shown
light 2: DIVMTQTPLSLSVTPGQPASISCKSSQSLVHSNGNTYLRWYLQKPGQSPKVLIYKVSNRVSGVPDRFSGSGSGTDFTLKISRVEAEDVGVYYCSQSTHVPWTFGQGTKLEIKRTVAAPSVFIFPPSDEQLKSGTASVVCLLNNFYPREAKVQWKVDNALQSGNSQESVTEQDSKDSTYSLSSTLTLSKADYEKHKVYACEVTHQGLSSPVTKSFNRGEC
notes: Exchange product as applied in the reaction mix; also called bio fluos
On to B1, for which the relative signal intensity in assay [1] was 7.2%; in assay [3], 9%. Moreover, the binding result in assay [2] is recorded as “no binding (tested: 1.3 µM input molecule concentration)”.

B2: bsAb from exchange reaction between anti-bio 2/3-IgG (MHCFcRP-knob-E357K) and anti-PDGF 2/3-IgG (MHCFcRP-hole-K370E) (bispecific antibody, not shown: small tags and cut ends)
heavy 1: not shown
light 1: B1 light 1
heavy 2: EVQLVESGGGLVQPGGSLRLSCAASGFTFSSYWMSWVRQAPEKGLEWVSTISDGGGLTYYADSVKGRFTISRDNAKNSLYLQMNSLRAEDTAVYYCAESGGYTDWLFGYWGQGTLVTVSSASTKGPSVFPLAPSSKSTSGGTAALGCLVKDYFPEPVTVSWNSGALTSGVHTFPAVLQSSGLYSLSSVVTVPSSSLGTQTYICNVNHKPSNTKVDKKVEPKSC
light 2: not shown
notes: Exchange product as applied in the reaction mix; also called bio PDGF
Regarding B2, the relative signal intensity was determined as 6.1% in assay [1] and 10.1% in assay [3]. Further, the binding result in assay [2] is given as “no binding (tested: 1.3 µM input molecule concentration)”.

B3: bsAb from exchange reaction between anti-fluos 2/3-IgG (MHCFcRP-knob-E357K) and anti-dig 2/3-IgG (MHCFcRP-hole-K370E) (bispecific antibody, not shown: small tags and cut ends)
heavy 1: not shown
light 1: B1 light 2
heavy 2: QVQLVESGGGLVKPGGSLRLSCAASGFTFSDYAMSWIRQAPGKGLEWVSSINIGATYIYYADSVKGRFTISRDNAKNSLYLQMNSLRAEDTAVYYCARPGSPYEYDKAYYSMAYWGQGTTVTVSSASTKGPSVFPLAPSSKSTSGGTAALGCLVKDYFPEPVTVSWNSGALTSGVHTFPAVLQSSGLYSLSSVVTVPSSSLGTQTYICNVNHKPSNTKVDKKVEPKSC
light 2: not shown
notes: Exchange product as applied in the reaction mix; also called fluos dig
On to B3, for which the relative signal intensity came to 6.3% in assay [1] and 9.4% in assay [3]. In addition, the binding result in assay [2] was “no binding (tested: 1.3 µM input molecule concentration)”.

B4: bsAb from exchange reaction between anti-bio 2/3-IgG (MHCFcRP-knob-E357K) and anti-dig 2/3-IgG (MHCFcRP-hole-K370E) (bispecific antibody, not shown: small tags and cut ends)
heavy 1: not shown
light 1: B1 light 1
heavy 2: B3 heavy 2
light 2: not shown
notes: Exchange product as applied in the reaction mix; also called bio dig
On to B4, for which the results for the relative signal intensity in assay [1] and in assay [3] were 6.2% and 9.3%, respectively. In addition, the binding result in assay [2] was “no binding (tested: 1.3 µM input molecule concentration)”.

B5: bsAb from exchange reaction between anti-dig 2/3-IgG (MHCFcRP-knob-E357K) and anti-fluos 2/3-IgG (MHCFcRP-hole-K370E) (bispecific antibody, not shown: small tags and cut ends)
heavy 1: B3 heavy 2
light 1: not shown
heavy 2: not shown
light 2: B1 light 2
notes: Exchange product as applied in the reaction mix; also called dig fluos
Turning to B5, the results for the relative signal intensity in assay [1] and in assay [3] were 6.7% and 9.1%, respectively. For the same molecule, the binding result in assay [2] is reported as “no binding (tested: 1.3 µM input molecule concentration)”.

B6: bsAb from exchange reaction between anti-dig 2/3-IgG (MHCFcRP-knob-E357K) and anti-bio 2/3-IgG (MHCFcRP-hole-K370E) (bispecific antibody, not shown: small tags and cut ends)
heavy 1: B3 heavy 2
light 1: not shown
heavy 2: not shown
light 2: B1 light 1
notes: Exchange product as applied in the reaction mix; also called dig bio
In the case of B6, the relative signal intensity in assay [1] worked out at 6.2%; in assay [3], 9%. Besides, in assay [2], the binding result is recorded as “no binding (tested: 1.3 µM input molecule concentration)”.

B7: bsAb from exchange reaction between anti-PDGF 2/3-IgG (MHCFcRP-knob-E357K) and anti-bio 2/3-IgG (MHCFcRP-hole-K370E) (bispecific antibody, not shown: small tags and cut ends)
heavy 1: B2 heavy 2
light 1: not shown
heavy 2: not shown
light 2: B1 light 1
notes: Exchange product as applied in the reaction mix; also called PDGF bio
On to B7, for which the relative signal intensity in assay [1] was 6%; in assay [3], 10.5%. For the same molecule, the binding result in assay [2] was “no binding (tested: 1.3 µM input molecule concentration)”.

B8: bsAb from exchange reaction between anti-fluos 2/3-IgG (MHCFcRP-knob-E357K) and anti-bio 2/3-IgG (MHCFcRP-hole-K370E) (bispecific antibody)
heavy 1: not shown
light 1: B1 light 2
heavy 2: not shown
light 2: B1 light 1
notes: Exchange product as applied in the reaction mix; also called fluos bio
As to B8, the results for the relative signal intensity in assay [1] and in assay [3] were 6.5% and 10.2%, respectively. Moreover, the binding result in assay [2] is “no binding (tested: 1.3 µM input molecule concentration)”.

B9: bsAb from exchange reaction between anti-dig 2/3-IgG (MHCFcRP-knob-E357K) and anti-PDGF 2/3-IgG (MHCFcRP-hole-K370E) (bispecific antibody, not shown: small tags and cut ends)
heavy 1: B3 heavy 2
light 1: not shown
heavy 2: B2 heavy 2
light 2: not shown
notes: Exchange product as applied in the reaction mix; also called dig PDGF
Take B9: the relative signal intensity was determined as 7% in assay [1] and 9.9% in assay [3]. In addition, the binding result in assay [2] is “no binding (tested: 1.3 µM input molecule concentration)”.

B10: bsAb from exchange reaction between anti-PDGF 2/3-IgG (MHCFcRP-knob-E357K) and anti-dig 2/3-IgG (MHCFcRP-hole-K370E) (bispecific antibody, not shown: small tags and cut ends)
heavy 1: B2 heavy 2
light 1: not shown
heavy 2: B3 heavy 2
light 2: not shown
notes: Exchange product as applied in the reaction mix; also called PDGF dig
In the case of B10, the relative signal intensity in assay [1] amounted to 5.9%; in assay [3], 9.2%. For the same molecule, in assay [2], the binding result is reported as “no binding (tested: 1.3 µM input molecule concentration)”.
